Results on 72 sequences are retold here after the supplement of paper PMC10567573.

The series is described as follows: protein stability index of a GFP-peptide fusion (GPS, HEK-293T) (PSI 1-6); higher = more stable.
[1] abbreviates: treatment: DMSO, c terminus: a fixed tail appended.
The mark [2] stands for this setting: treatment: MLN4924 1 uM, 8 h, c terminus: a fixed tail appended.
Setting [3] is: treatment: DMSO, c terminus: native.
Setting [4] is: treatment: MLN4924 1 uM, 8 h, c terminus: native.

± gives the standard deviation.
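Also: 24-mer peptide tiles fused after GFP, lentivirally expressed, FACS-sorted into six equal bins by GFP/DsRed ratio, decoded by Illumina sequencing, PSI is the read-weighted mean bin number.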

EFGYNAETQKLLCKNGETLLGAVN [ARFIP2]: the protein stability index reads like this: under setting [1], 3.31 ± 0.042; under setting [2], 3.29 ± 0.38.
Turning to EFMLLPANQLIDIISSDELNVRSE [KLHL20], the protein stability index came out at 3.71 ± 0.37 under setting [1] and 3.38 ± 0.44 under setting [2].
The like results for EFNGLKKMNPKLKTLLAIGGWNFS [CHIT1] were, in that order, 2.44 ± 0.57 and 2.32 ± 0.34.
On to EFPDFYDSEEPVSTHQEAENEKDR [CHGB], for which the protein stability index is 5.68 ± 0.25 under setting [1] and 5.54 ± 0.24 under setting [2].
For EGPKRELGVRRPGGAGKEGVRVNN [TCF25], in that order: 4.7 ± 0.12 and 5.04 ± 0.16.
Regarding EGVEIMLGVCASGLLIYRDRLRIN [EPB41L3], the protein stability index by setting is: under setting [1], 2.75 ± 2.1; under setting [2], 2.12 ± 0.2.
For EHIKSLLIKNNSLPRKRQSLRSSS [INTS3], in that order: 3.29 ± 0.17 and 3.38 ± 0.25.
The like results for EHKETSRNLHSHYHEAPMTRKHYQ [POMT2] were, in that order, 4.09 ± 0.28 and 4.22 ± 0.2.
For EHNSSLVSQQTGSPGKQPGENSDC [ZNF8], the protein stability index reads like this: under setting [1], 5.25 ± 0.3; under setting [2], 5.39 ± 0.073.
The like results for EHRVAGIFPRLSFKDKSTYIESST [CLPTM1] were, in that order, 3.16 ± 0.2 and 2.93 ± 0.29.
The like results for EILSSRASYSGKAADVWSLGVALF [TRIB3] were, in that order, 2.52 ± 0.52 and 2.42 ± 0.39.
The like results for EIPERRDSGVGASLTRSNRHRLRW [DLC1] were, in that order, 4.17 ± 0.35 and 4.36 ± 0.32.
As for EKEIEEATKKLGFKHPVIGVHVRR [FUT8], the protein stability index stood at 3.99 ± 0.29 under setting [1] and 3.9 ± 0.51 under setting [2].
The like results for EKKVLEAGMGKVTSASFGEESTPG [HDAC6] were, in that order, 5.21 ± 0.23 and 5.18 ± 0.32.
For EKLIQERSQQQEPLLCPSYQSYFK [KRT34], in that order: 3.36 ± 0.23 and 3.41 ± 0.32.
For EKMEEEEQTCDPDSSLHWSSSYSP [ZNF396], in that order: 5.3 ± 0.32 and 5.56 ± 0.065.
Turning to EKVLDQVETELQRRNEETPEEGQQ [GDAP1], the protein stability index runs as follows: under setting [1], 5.68 ± 0.14; under setting [2], 5.64 ± 0.093.
The like results for ELARIVLLRHGMDRLWRPSKVLSL [RAB40B] were, in that order, 2.54 ± 0.67 and 2.43 ± 0.75.
For ELDEEEVKAATTEPTEVEEVVPAL [BCL2L13], in that order: 5.44 ± 0.28 and 5.54 ± 0.13.
The like results for ELEEDDGHGAEQAAAFPTEDSRTS [EHMT1] were, in that order, 5.65 ± 0.17 and 5.7 ± 0.088.
Consider ELFEDIVAREYYSEADASHCIQQI [CAMK2B], for which the protein stability index came out at 2.8 ± 0.34 under setting [1] and 3.03 ± 0.25 under setting [2].
Turning to ELGSPLRRSISSSRSENVLSRLSL [PSD2], the protein stability index came to 3.07 ± 0.42 under setting [1] and 3.2 ± 0.13 under setting [2].
Regarding ELMAELEELEQEELNKKMTNIRLP [CHMP4C], the protein stability index is, setting by setting: under setting [1], 3.55 ± 0.3; under setting [2], 3.65 ± 0.22.
As for ELRRRRYEYDHWDAAIHGFRETEK [ALKBH7], the protein stability index by setting is: under setting [1], 3.5 ± 0.39; under setting [2], 3.56 ± 0.44.
For ELRVLADTYDSVYLHPNSYSCACL [HDAC6], in that order: 2.03 ± 0.12 and 2.04 ± 0.4.
The like results for ENSVEFEACLVAQCDALIDALNRR [TRIM9] were, in that order, 2.88 ± 0.24 and 3.11 ± 0.37.
For ENYNNLANAVISVSGINHDVTSGD [CPN1], in that order: 4.28 ± 0.2 and 4.4 ± 0.14.
On to EPELSPAYLISEAMRRSRMSLYC [GFOD1], for which the protein stability index amounted to 2.3 ± 0.81 under setting [3] and 2.27 ± 0.3 under setting [4].
Turning to EPFGKERDAAIKKLATEAGVEVIV [CRY1], the protein stability index under setting [1] was 3.59 ± 0.22 and the protein stability index under setting [2] came out at 3.48 ± 0.28.
The like results for EPFVLPASSVESTLPVLEASSWKK [FBXO34] were, in that order, 4.57 ± 0.22 and 4.87 ± 0.2.
For the sequence EPGKQERDVYLPAGKWRSYKGELF [MYORG], the protein stability index is 3.17 ± 0.087 under setting [1] and 3.2 ± 0.21 under setting [2].
Regarding EPKNYGSYSTQASAAAATAELLKK [SCAMP3], the protein stability index reads like this: under setting [1], 4.84 ± 0.18; under setting [2], 4.83 ± 0.16.
For the sequence EPLEPEVKYVGNMHGNEALGRELM [CPN1], the protein stability index is 4.63 ± 0.088 under setting [1] and 4.82 ± 0.18 under setting [2].
Regarding EPNTLRAPRVRTAFTMEQVRTLEG [VENTX], the protein stability index was 3.98 ± 0.39 under setting [1] and 3.85 ± 0.21 under setting [2].
For EPPPALPPAADAPVTQIGFEAPPL [TRIM55], in that order: 5.24 ± 0.22 and 5.39 ± 0.11.
With EPPPEVWQVLKTHPGDPRFQCSLW [POLD4], the protein stability index turned out to be 2.45 ± 0.42 under setting [1] and 2.55 ± 0.31 under setting [2].
EQCVSFNSHVYNGRTHQWKPLYPD [ADAMTSL2] registered a protein stability index under setting [1] of 3.26 ± 0.25 and a protein stability index under setting [2] of 3.08 ± 0.19.
As for EQDAACGFCFFNSVAVAARHAQTI [HDAC6], the protein stability index was 1.99 ± 0.83 under setting [1] and 1.95 ± 0.21 under setting [2].
Regarding EQELLRRQQRLNQLEKPPEKEEDH [FAM107A], the protein stability index came to 5.62 ± 0.16 under setting [1] and 5.54 ± 0.12 under setting [2].
The like results for EQEPIGTDLDAVRTPEPLEEFPKR [MYBL2] were, in that order, 5.57 ± 0.2 and 5.18 ± 0.46.
For EQLERINDALSCEYECRRRMLMKR [FAM98B], in that order: 3.09 ± 0.37 and 3.14 ± 0.33.
As to EQPVPPTPATPEDPAPLWGPPPAQ [EMID1], the protein stability index is, setting by setting: under setting [1], 4.92 ± 0.38; under setting [2], 5.32 ± 0.22.
For EQYDLATKRVRQLLDLDPEVECLK [GOLPH3], in that order: 3.96 ± 0.28 and 3.97 ± 0.43.
The like results for ERCFRGSSYPVCVSKVVKGGSSGK [OAS1] were, in that order, 3.84 ± 0.13 and 4.07 ± 0.12.
For ERHLVEIKQKLGMNLMNELKQNFS [TPD52L1], in that order: 3.04 ± 0.2 and 2.71 ± 0.41.
For the sequence ERLDELQDKSESLSDNATAFSNRS [VAMP4], the protein stability index is, setting by setting: under setting [1], 5.44 ± 0.24; under setting [2], 5.34 ± 0.088.
Consider ERNNIAVRKSRDKAKRRNQEMQQK [CEBPD], for which the protein stability index is 3.79 ± 0.9 under setting [1] and 3.31 ± 0.37 under setting [2].
Turning to ERRPVAQSTDGARGKRGYSRGLHA [SPSB2], the protein stability index reads like this: under setting [1], 4.52 ± 0.11; under setting [2], 4.58 ± 0.13.
Consider ERTKSRLVNTSENLSKSRKILRSM [VTI1B], for which the protein stability index was determined as 3.79 ± 0.21 under setting [1] and 3.87 ± 0.19 under setting [2].
For ESEVYSWGKGARGRLGRRDEDAGL [NEK8], in that order: 4.67 ± 0.19 and 4.66 ± 0.37.
For the sequence ESGVDVNSQNEVNGWTCLHWACKR [ANKRD40], the protein stability index amounted to 3.06 ± 0.22 under setting [1] and 3.31 ± 0.46 under setting [2].
For ESPFSRKLDLWSFLDIPRSRLVKY [NET1], in that order: 2.06 ± 0.14 and 2.15 ± 0.21.
The like results for ESRMRIESLSSQLSNLQKESRACL [LMNB1] were, in that order, 3.63 ± 0.34 and 3.94 ± 0.12.
Turning to ESSILGTDIDLQTIDNDIVSMEIF [M1AP], the protein stability index is, setting by setting: under setting [1], 3.86 ± 0.34; under setting [2], 3.74 ± 0.35.
On to ETLEGREKAFIAHFQDNLHSVNRD [MED27], for which the protein stability index by setting is: under setting [1], 4.32 ± 0.22; under setting [2], 4.26 ± 0.2.
The like results for ETVPWFPKKISDLDHCANRVLMYG [TPH1] were, in that order, 2.38 ± 0.24 and 2.46 ± 0.26.
As to EVHSLTLSPPEQAAQPMQPLPESL [PLAGL1], the protein stability index by setting is: under setting [1], 4.92 ± 0.26; under setting [2], 5.02 ± 0.088.
For the sequence EVLAQPQGALAPPNCESDSKTGV [DNAAF3], the protein stability index runs as follows: under setting [3], 5.34 ± 0.27; under setting [4], 5.3 ± 0.39.
Sequence EVLENVFRVNCYPGIDIREDLAQK [HESX1] yielded a protein stability index under setting [1] of 2.46 ± 0.31 and a protein stability index under setting [2] of 2.35 ± 0.66.
For EWARALETRDWGGAQFEGEKGRAL [ZSWIM9], in that order: 3.88 ± 0.3 and 3.9 ± 0.31.
The like results for FANEEEAKKFRKAVTDLLGRRQRK [WASL] were, in that order, 3.15 ± 0.24 and 3.52 ± 0.27.
The like results for FDVETRHVFIGDHSGQVTILKLEQ [WDFY2] were, in that order, 2.2 ± 0.44 and 2.43 ± 0.33.
Take FEKLLQLTSQNIEIKLVSDVTADS [PLD5]: the protein stability index stood at 2.69 ± 0.59 under setting [1] and 2.72 ± 0.37 under setting [2].
The like results for FGFFFGRTPLIKLSPKKTWEGFIG [CDS1] were, in that order, 2.47 ± 0.48 and 2.18 ± 0.57.
The like results for FGIEIEVTDINDNAPKFQAENLDV [PCDHGA10] were, in that order, 3.5 ± 0.56 and 3.98 ± 0.38.
Sequence FGVTYLEDYSAEYIIQQGGWGTVF [BCL2L13] had a protein stability index under setting [1] of 2.48 ± 0.38 and a protein stability index under setting [2] of 2.33 ± 0.26.
The like results for FHCIETLVTTGANVNETDDWGRTA [ANKRD44] were, in that order, 2.62 ± 0.32 and 3.15 ± 0.36.
FHLSLFQGWMNLLNMAKKSVDIVS [PLD5]: the protein stability index stood at 2.99 ± 1.5 under setting [1] and 1.73 ± 0.94 under setting [2].
The like results for FICKECGKAYGWCSELIRHRRVHA [ZNF232] were, in that order, 3.38 ± 0.3 and 3.73 ± 0.33.
The like results for FISQVTVLKYFSHYMEENLMDGGD [PLK2] were, in that order, 2.46 ± 0.69 and 2.3 ± 0.49.
On to FIVGMVGNATLLRIIYQNKCMRNG [EDNRA], for which the protein stability index is 2.98 ± 0.15 under setting [1] and 2.51 ± 0.68 under setting [2].
Regarding FKPKNEEPYGHLNPKWTKWLQKLC [PI4K2A], the protein stability index came out at 2.88 ± 0.58 under setting [1] and 2.79 ± 0.54 under setting [2].
